Our source for the Kd values is article PMC10907630.

The data set concerns tau ΔMTBD-DBR (1N4R) del242-265, P10636-7. Description: EMSA. Conditions: 10 mM NaCl; text gives 430; EMSA: 20 nM DNA or nucleosome, 20 mM HEPES pH 7.2, 10 mM NaCl (or 150), 0.5 mM TCEP, 0.1% Tween-20, 5% sucrose, room temperature 20 min; FA: 10 nM DNA, same ….
Sequence of tau ΔMTBD-DBR (1N4R) del242-265, P10636-7 (P10636 other isoform, or with tags, fused parts or gaps mutant): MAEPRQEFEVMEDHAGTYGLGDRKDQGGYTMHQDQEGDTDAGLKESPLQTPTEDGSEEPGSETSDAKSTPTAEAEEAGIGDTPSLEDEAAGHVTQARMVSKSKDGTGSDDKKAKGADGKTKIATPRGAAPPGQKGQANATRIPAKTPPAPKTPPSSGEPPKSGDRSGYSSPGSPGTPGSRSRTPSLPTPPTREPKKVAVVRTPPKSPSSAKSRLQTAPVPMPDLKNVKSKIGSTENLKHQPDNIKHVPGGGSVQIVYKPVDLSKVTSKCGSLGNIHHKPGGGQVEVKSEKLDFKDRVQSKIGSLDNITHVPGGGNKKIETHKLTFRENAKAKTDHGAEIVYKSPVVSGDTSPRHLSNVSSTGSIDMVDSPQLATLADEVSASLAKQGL

For orientation: Kd means the equilibrium constant for the complex coming apart. As to “ACTACGCGGCCGCCCTGGAGAATCCCGGTGCCGAGGCCGCTCAATTGGTCGTAGACAGCTCTAGCACCGCTTAAACGCACGTACGCGCTGTCCCCCGCGTTTTAACCGCCAAGGGGATTACTCCCTAGTCTCCAGGCACGTGTCAGATATATACATCCTGTGCATGTAAGATCCAGT (double strand) [177 bp DNA (601)]”, the Kd is 427 nM.
